The values below come from paper PMC8626509.

Where “and” joins values, the source holds several entries; their conditions need not be identical. Identical values can stand only once. A value given as a limit tells only on which side of the number the result lay.

The target in one series is Asp89 (UniProt position 90, LAIRNDEELNK). Description: NMR. Particulars: 303 K; 200 mM (adjusted with NaCl); 20 mM acetate pH 4.5, 5.1; 20 mM MES pH 5.6, 6.0, 6.5; 20 mM phosphate pH 6.8, 7.5, 7.9; 20 mM CHES pH 9.1; folded free H2A-H2B heterodimer (150 uM).
Another series addresses Glu55 (UniProt position 56, LAAVMEYLAAE). Description: NMR. The note with it: 303 K, 200 mM (adjusted with NaCl).
For the next series, the target named is Glu60 (UniProt position 61, EYLAAEVLELA). Description: NMR. The note with it: 303 K; 200 mM (adjusted with NaCl); 20 mM sodium acetate (pH 4.4-5.1), 20 mM MES (pH 5.4-6.5), 20 mM sodium phosphate (pH 6.8-7.9), 20 mM CHES (pH 9.1); folded free H2A-H2B heterodimer.
Another series deals with Glu63 (UniProt position 64, AAEVLELAGNA). Description: NMR. The note with it: 303 K; 200 mM (adjusted with NaCl); 20 mM sodium acetate (pH 4.4-5.1), 20 mM MES (pH 5.4-6.5), 20 mM sodium phosphate (pH 6.8-7.9), 20 mM CHES (pH 9.1); folded free H2A-H2B heterodimer.
A further series addresses Glu90 (UniProt position 91, AIRNDEELNKL). Description: NMR. The note with it: 303 K; 200 mM (adjusted with NaCl); 20 mM sodium acetate (pH 4.4-5.1), 20 mM MES (pH 5.4-6.5), 20 mM sodium phosphate (pH 6.8-7.9), 20 mM CHES (pH 9.1); folded free H2A-H2B heterodimer.
A further series has as its target Glu91 (UniProt position 92, IRNDEELNKLL). Description: NMR. Particulars: 303 K, 200 mM (adjusted with NaCl).
The target in the next series is His106 (UniProt position 107, GELAKHAVSEG). Description: NMR. Particulars: 303 K; 200 mM (adjusted with NaCl); 20 mM acetate pH 4.4, 5.0; 20 mM MES pH 5.4, 5.8, 6.2; 20 mM phosphate pH 6.8, 7.1, 7.5; folded free H2A-H2B heterodimer (150 uM).
A further series deals with His79 (UniProt position 80, ASRLAHYNKRS). Description: NMR. The note with it: 303 K; 200 mM (adjusted with NaCl); 20 mM acetate pH 4.4, 5.0; 20 mM MES pH 5.4, 5.8, 6.2; 20 mM phosphate pH 6.8, 7.1, 7.5; folded free H2A-H2B heterodimer (150 uM).
The mark [1] stands for this setting: 20 mM sodium acetate (pH 4.4-5.1), 20 mM MES (pH 5.4-6.5), 20 mM sodium phosphate (pH 6.8-7.9), 20 mM CHES (pH 9.1), folded free H2A-H2B heterodimer.

By pKa is commonly meant the pH at which an ionisable group is half protonated. A higher pKa goes with a group that holds its proton tightly.

For the substance “Histone H2A (in the free H2A-H2B heterodimer) (Drosophila melanogaster)”, the pKa with Asp89 is 5.51 ± 0.11 [4.37–6.07] and 5.02 ± 0.28 [4.61–5.61] and 5.3; with Glu55 (20 mM acetate pH 4.5, 5.1, 20 mM MES pH 5.6, 6.0, 6.5, 20 mM phosphate pH 6.8, 7.5, 7.9, 20 mM CHES pH 9.1, folded free H2A-H2B heterodimer (150 uM)), 4.32 ± 0.08 [4.08–4.78]; in the series with Glu55 (setting [1]), less than 5; with Glu60 it was less than 5; with Glu63, less than 5; with Glu90 it was less than 5. In addition, the pKa with Glu91 (20 mM acetate pH 4.4, 5.0, 20 mM MES pH 5.4, 5.8, 6.2, 20 mM phosphate pH 6.8, 7.1, 7.5, folded free H2A-H2B heterodimer (150 uM)) was 4.36 ± 0.06 [3.89–4.79]; with Glu91 (setting [1]), less than 5.

For the substance “Histone H2B (in the free H2A-H2B heterodimer) (Drosophila melanogaster)”, the pKa with His106 is 6.52 ± 0.05 [6.23–6.93]; with His79, 6.7; in the series with His46 it was 5.86 ± 0.03 [5.66–6.06] and 5.64 ± 0.02 [5.54–5.74] and 5.75 ± 0.03 [5.52–5.92].
